The DeepSol protein solubility set

Assay: soluble on expression in E. coli; label from the status in PepcDB or PDB records

Row | Sequence | soluble on expression in E. coli
1 | MAITLKTYAYTINRVLYFHTFVKFLFSNLVSFDTFEEIGNDVAVIVFLEHSFTRSHEKRHVCRESLLLSSCNNKLSRIHGLSERISKRYQKPSRGDIVVIRSPENPNKTPIKRVVGVEGDCISFVIDPVKSDESQTIVVPKGHVFVQGDYTHNSRDSRNFGPVPYGLIQGRVLWRDNTTGIVTQVVLDTALLRETTNGLRIKTYQGGSGYVQGIRFTNVEMQDTSAVKISHIMYRNITKSAKAIKFACSDTVPCSHIVLNNVNLEGKDGQVEAYCNSAEGFGYGVYSHNDKGLDQTHKSEEAETGHDEL | soluble
2 | MAKERALTLEALRVMDAIDRRGSFAAAADELGRVPSALSYTMQKLEEELDVVLFDRSGHRTKFTNVGRMLLERGRVLLEAADKLTTDAEALARGWETHLTIVTEALVPTPAFFPLIDKLAAKANTQLAIITEVLAGAWERLEQGRADIVIAPDMHFRSSSEINSRKLYTLMNVYVAAPDHPIHQEPEPLSEVTRVKYRGIAVADTARERPVLTVQLLDKQPRLTVSTIEDKRQALLAGLGVATMPYPMVEKDIAEGRLRVVSPESTSEIDIIMAWRRDSMGEAKSWCLREIPKLFNGK | soluble
3 | MAKKIVIIGAGAGGGISLSKLRRVLKDEDVDITIIDKLGRTDFQPSYIFLSIGQKRVKDLSRDFNLLNGGHVKTVKDEVVSVDAQNRIVNTLKGKYSYDYLIMSPGPDIKKDSFEGIEATDSVWTLEDSLKLRAKIKEFNGGKILISVSSQWYKCPPVPWEMALLLDDYFRKKNMRDKVEITVAHPVSKPMEMYGPGLSDPFAKMLEKRSIGGLYGKKLLGIDASKKEAVFEDDDRLRFDLSIVAPPHSPPSFIKDNEYLRSKNGWASTNLKDFRNPKYDDIFAIGDVIAPTIQIGMAGVLAHFQADTASSAIAEDIIGYPFIDYNKNAVCIIATGSSGVFSYCDLSAKLTDPSVKFPECRMIGNDPLFRFAHDLYEVNFLSSIYGNRLEHHHHHH | not soluble
4 | MAKKLLLVGGGHSNALVLKHWCRHPLADVELTLVSDVRQTPYSGMLPGYLAGFYSYGESHIDLAPLCASAGAIFVQDKAIAVNPEQNLLTTAEGRQLSFDCLSLDIGSTPFIDDIVGAEYGIPAKPVPQFLTAWLALLENIDQNRPKKVTLAIAGGGAGGVELAFNLQARLAKLFPAMGLDMQIWQRGAILLPHHSVQGRKLIERLLVKQNIAVLLNHPVTSIEPEFSPDDNPLTCYKLWSNDHWQSVNAVFLVTQASPAPWLAQSGLSLDSRGFVSVKPTLQSYSHGHIFAAGDVANMIDHPRPKAGVFAVRQGKPLFENLQHYLSHQTLKTFVPQSKYLSLLGTRDGRAIALWGPWASYGHCWWRLKDYIDRQFMAGFSA | soluble
5 | MAKLTALTLLGMGLALFDRQKSSFQTRFNVHREVTPVELPNCNLVKGIDNGSEDLEILPNGLAFISSGLKYPGIMSFDPDKSGKILLMDLNEKEPAVSELEIIGNTLDISSFNPHGISTFIDDDNTVYLLVVNHPGSSSTVEVFKFQEEEKSLLHLKTIRHKLLPSVNDIVAVGPEHFYATNDHYFIDPYLKSWEMHLGLAWSFVTYYSPNDVRVVAEGFDFANGINISPDGKYVYIAELLAHKIHVYEKHANWTLTPLRVLSFDTLVDNISVDPVTGDLWVGCHPNGMRIFFYDAENPPGSEVLRIQDILSEEPKVTVVYAENGTVLQGSTVAAVYKGKLLIGTVFHKALYCDL | soluble
6 | MAKPIMAKATAVWLVDNTTLSFKQIADFVGMHELEVQGIADGDVAQGVKGFDPIANNQLTQDEIDTAQNNPLHKLKLKFNAAAQGEEKRRGPRYTPLSKRQDRPASILWLVKFHPELTDGQISKLIGTTKPTIQAIRERTHWNISNIQPIDPVALGLCKQSELDMAVQKAAAKKAADAPVMLEHHHHHH | soluble
7 | MAKPVVIGSRSFRTQSSALDHYKALLHRYQDGQRIADPADHTDLVALIERFDPVLDAVGEPAKGAGQIAHFERRLNTGIGWSTPGFWVVRQDGTETDFSYIDAVKGRPKGRSQDFYNACRQAVALDLVLAKKQAFAQYGDDQGRVECELTGKMVTIDDAHLDHAWPYFSHMVSGFRAARGWSRDIPDGIVSTPADGQTTATFLDSAVTEAFRAFHHDQAVLRVLSREANLQTASSARRPKVARPVRLALEHHHHHH | soluble
8 | MAKRQQRSNKPSSEYTCLGHLVNLIPGKEQKVEITNRNVTTIGRSRSCDVILSEPDISTFHAEFHLLQMDVDNFQRNLINVIDKSRNGTFINGNRLVKKDYILKNGDRIVFGKSCSFLFKYASSSSTDIENDDEKVSSESRSYRSHHHHHH | soluble
9 | MAKRVPNMELFVFCEDLEFTQNLDLGYPFMDMTTRDKEEEAYWDMLLMQSCQHGIIANSTYSWWAAYLIENPEKIIIGPKHWLFGHENILCKEWVKIESHFEVKSQKYNALEHHHHHH | soluble
10 | MAKSRLLLSELLDQLSFALCIVRNDYVIVKVNEYFESRVIFDGETMQGKNILELFPESADYLKRKIDTALVIESSSFSSWEQKPHLLPFKSSRPVSGEEEQMYQNLEVIPIHSEDGTIEHVCLCVYDVTIQASQQQELKRVSQKLEEEHQSQKVLIKKLEDAQGQLIQSEKMASIGQLSAGIAHEINNPVGFITSNLQTLSDYFNSLEKVLKSITQTIGQSKDTALNEACQKILKQGQVDFILEDTAELITESLEGSSRVMSIVKNLKEFSHVDRSEWSYANLENCIESTLKIINNEIKYNITLEKHYAANVPDVFCQPMQINQVLLNILVNASHAIKGEGTITITLQSAGDDFVEIHIRDTGCGIPEEIRERIFEPFFTTKPVGSGTGLGLSVSYGIINKHNGTISVTSEVGKGSEFTIRLPVNPSAEAVDNTDAKAM | not soluble
11 | MAKVRETYVCSACGANTPQWRGQCPTCKAWNTLDAVTVARETRSGVRRQGAPDSVRPRPLRDVSDEGGSPFGTGLEALDRVLGSGLVPGAAILFGGEPGIGKSTLLLQVAGAVAASGRDVLYLSGEESLTQLKGRAERLGVLHERLLAVATSRVEDVFSVLESGTPPALLVLDSVQTLTSDLAEGLPGNVSQVRAVATEVVDRCKRAGTAVLLVGHVTKDGNLAGPRLLEHMVDTVVSLEGDRRQMFRLLRVLKNRFGPNQELLVFQMAQRGLEVVEDPSTFFLGARDPALSGTAVVMAVDGQRPFAVEVQALVTRSYLAIPRRTGLGFDVNRLHLLLAVLEKRLRLNFGQVDIYAKIGGGMRLQDPGMDLALVAAVLSSFYDVALPERAVLWGEVDLNGQVRPVAAHDIRLGQAARLGYGPVLHPGEGRGAVPTVVELQARLFGKSGAPRHNPSELEHHHHHH | not soluble
12 | MAKYQSMLVVIDPNQDDQPALRRAVYLHQRIGGRIKAFLPIYDFSYEMTTLLSPDERTAMRQGVIAQRTAWIREQAKFYLESGVPIDVKVVWHNRPFEAIIQEVVSEKHDLLLKMAHQHDKLEAVIFTPTDWHLLRKCPCPVWMVKDQPWPEGGKALVAVNLASEENYHNTLNEKLVRETLSLAEEVNHTEVHLIGAYPVTPINIAIELPDFDPSVYNDAIRGQHLLAMKALRQKFGIDEKFTHVEKGLPEEVIPDLAEHLQAGIVVLGTVGRTGLSAAFLGNTAEQVVDHLRCDLLVLKPEAYQTPVELDDDDDD | not soluble
13 | MAKYTRDDILAQAKQLAKMIAETEEVDFFKRAEEKIHQNEKVRTLINELKSLQKQAVNLQHYGKHEALKQVEAKIDAIYEELSQIPIVSEFQQSQSDVNDLLQLVASTISNTVTDEILASTGGDVLRGETGAALRYNKHGGCH | not soluble
14 | MALEKLLKVQERLWAPEDLRKKANLQDYAAEYRKSLEDPEGFWGAWARRFHWEKPFEKVLEWTLPEHRWFLGGTTNAVYNALERNVERGLRNKVALLYLAEDGREEKLTYGELLDRVRRLATGLRRLGVGKGDRVVIYMPLTLEGVLAMLATAYIGAIHSVVYAGLGVSALRERILDAQAKLLIAGDVSFRRGKGVDLRSIAEEAIRDLPLKVVWFQRAYKAELAEGHYDFHELLWGNPPEARAEMVDAEHPLFILYTSGSTGKPKGVVHVHGGYMVGTTYHLRTFFDVKDEDVFWATSDIGWIVGHSYIVYAPLLEGITSVLREGAPDHPDPGALWQAVERYRVNVMFTAPTAVRMFMKYGPEWPRKYDLSSLRLLAVAGEPLNPEALKWAYEHLVDGGRRGFVADNWWQTELGGPTLGTPLVLPAKPGFAGVALPGVEAEVVDEEGRPVPPGQGGLLVLKRPFPHMMRTVWGNHERYLRYWQEVPGGVYASGDVASKDEEGYFSVLGRADDVLNVAGHRIGTADVESALVSHPAVAEAAVIGVPDPLKGEAIKAFVVLRLGQTPSEELKEALVQHVRRELGPIATPSEVVFLDKLPKTRSGKILRRLLKAQALGKDPGDLSTLEE | soluble
15 | MALIEKNTQFDADKLTANVVGIAADVGKHDSGMHQHHKGQLLYAPQGCMTFALNDSICILPPTKAVWIPPHTPHRAVMTNVVAYRSVYFDCDKFSCPKSIVMIEVNDLLKALINKMALWEWDIEQTKTNATTILFWEEFYQAKQFELTLPLPSDRRLASFRNAMTKDGFIAPD | not soluble
16 | MALKATIYKATVNVADLDRNQFLDASLTLARHPSETQERMMLRLLAWLKYADERLQFTRGLCADDEPEAWLRNDHLGIDLWIELGLPDERRIKKACTQAAEVALFTYNSRAAQIWWQQNQSKCAQFANLSVWYLDDEQLAKVSAFADRTMTL | not soluble
17 | MALKKHNVFVFSSNYTLYGDMSQRVMNTLAEFTPEIEVYSIDESFLNFEGFELLGDLKIYGTTIRNTVFRNTGIPVSIGIAPTKALAKLSNRIAKKNKEYNHVCVLEHHHHHH | not soluble
18 | MALLWQLARNAEGDDPTNLESALIGKPVPKFRLESLDNPGQFYQADVLTQGKPVLLNVWATWCPTCRAEHQYLNQLSAQGIRVVGMNYKDDRQKAISWLKELGNPYALSLFDGDGMLGLDLGVYGAPETFLIDGNGIIRYRHAGDLNPRVWEEEIKPLWEKYSKEAAQ | soluble
19 | MALPGERFHVLAQLEHLQSKYTGTAMRHEPSRMDCESAPRHSRLSNVSSRNEHVYCRCGEREPSSNPLQSDKSHDSAVWTASREESS | not soluble
20 | MALSAEGSSGGSRGGSPKAEAASVPSWPQILGRLTDNRDLARGQAAWAMDQIMTGNARPAQIAAFAVAMTMKAPTADEVGELAGVMLSHAHPLPADTVPDDAVDVVGTGGDGVNTVNLSTMAAIVVAAAGVPVVKHGNRAASSLSGGADTLEALGVRIDLGPDLVARSLAEVGIGFCFAPRFHPSYRHAAAVRREIGVPTVFNLLGPLTNPARPRAGLIGCAFADLAEVMAGVFAARRSSVLVVHGDDGLDELTTTTTSTIWRVAAGSVDKLTFDPAGFGFARAQLDQLAGGDAQANAAAVRAVLGGARGPVRDAVVLNAAGAIVAHAGLSSRAEWLPAWEEGLRRASAAIDTGAAEQLLARWVRFGRQILEHHHHHH | soluble
21 | MALSEQSKDLSDPNFAAEAPNSEVHSSPGVSEGVPPSATLAEPQSPPLGPTAAPQAAPPPQAPNDEGDPKALQQAAEEGRAHQAPSAAQPGPAPPAPAQLVQKAHELMWYVLVKDQKKMIIWFPDMVKDVIGSYKKWCRSILRRTSLILARVFGLHLRLTSLHTMEFALVKALEPEELDRVALSNRMPMTGLLLMILSLIYVKGRGARESAVWNVLRILGLRPWKKHSTFGDVRKLITEEFVQMNYLKYQRVPYVEPPEYEFFWGSRASREITKMQIMEFLARVFKKDPQAWPSRYREALEEARALREANPTAHYPRSSVSEGHHHHHH | soluble
